Assay: yeast display, Sf9 membrane polyspecificity reagent, FACS + sequencing; frameworks hold sequencing errors
In short: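 Synthetic nanobody libraries on Saccharomyces cerevisiae BJ5465 were galactose-induced for 36–48 hours, stained 1 hour at 4 °C with 10% biotinylated, detergent-solubilized Sf9 membrane reagent and enriched on streptavidin microbeads. FACS then separated cells into low and high (top ~1%) gates by anti-HA (expression) and streptavidin (reagent binding) fluorescence. Genes were colony-PCR amplified, MiSeq 2 × 250 sequenced and CDR-length filtered. A clone's polyreactivity label is that of its gate of origin.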

Sequence | polyreactivity (PSR sort gate)
QVQLVESGGGLVQAGGSLRLSCAASGITFNHYTMGWYRQAPGKERELVAAISSRGSTTYYADSVKGRFTISRDNAKNTVYLQMNSLKPEDTAVYYCAARYPTYYRPRYRGRPGYDYWGKGTQVTVSS | high polyreactivity
QVQLVESGGGLVQAGGSLRLSCAASGITFNLYAMGWYRQAPGKERELVASINSGGSPYYADSVKGRFTISRDNAKNTVYLQMNSLKPEDTAVYYCAAETSYYYRGYWKSYDYWGQGTQVTVSS | high polyreactivity
QVQLVESGGGLVQAGGSLRLSCAASGITFNPYGMGWYRPAPGKERELVADITCGGITDYADCVKGRFTIARDNAKNTVYLHKNSLKPEETAVYYCATGDLFVYYWCYVVRLYDYWGQGTQVTVSS | low polyreactivity
QVQLVESGGGLVQAGGSLRLSCAASGITFNRYAMGGYRQAPGKERELVASITSGGRTNYADSVKGRFTISRDNAKNTVYLQMNSLKPEDTAVYYCAVRWVRSRSSSLRKANYYWGQGTIVTVSS | high polyreactivity
QVQLVESGGGLVQAGGSLRLSCAASGITFNYYAMGWYRQAPGKERELVAAITDDGNTNYADSVKGRFTISRDNAKNTVYLQMNSLKPEDTAVYYCAADLLGIPDYEYWGQGTQVTVSS | low polyreactivity
QVQLVESGGGLVQAGGSLRLSCAASGITFPDYAMGWYRQAPGKERELVATISSSGGNTYYADSVKGRFTISRDNAKNTVYLQMNSLKPEETAVYYCATVSYYCGYDYWGQGTQVTVSS | low polyreactivity
QVQLVESGGGLVQAGGSLRLSCAASGITFPFYAMGWYRQAPGKERELVAAISRRGGRTYYADSVKGRFTISRDNAKNTVYLQMNSLKPEDTAVYYCAAANGSADGDYWGQGTQVTVSS | high polyreactivity
QVQLVESGGGLVQAGGSLRLSCAASGITFPLYVMGWSRQAPGKERELVAAISASGGSTYADSVKGRFTISRDNAKNTVYLQMNSLKPEDTAVYYCNADVYVGYEYDYWGQGTQVTVSS | low polyreactivity
QVQLVESGGGLVQAGGSLRLSCAASGITFPQYAMGWYRQAPGKERELVAAITSGGSTNYADSVKGRFTISRDNGKNTVYLQMNSLKPEDTGVYYCNTAGYYWLHYTMDYWGQGTQVTVSS | high polyreactivity
QVQLVESGGGLVQAGGSLRLSCAASGITFPRYAMGWYRQAPGKERELVATITRSGGGTYYADSVKGRFTISRDNAKNTVNLQMNSLKPEDTAVYYCAAGALQRGVYGYGYWGQGTQVTVSS | high polyreactivity
QVQLVESGGGLVQAGGSLRLSCAASGITFPSYVMGWYRQAPGKEREFVAAITGSAGSTYYADSVKGRFTISRDNAKYTVYLQMNSLKPEDTAVYYCAARVRYVNPKYYYWGQGTQVTVSS | high polyreactivity
QVQLVESGGGLVQAGGSLRLSCAASGITFPYYAMGWYRQAPGKERELVAAISDGGSTNYADSVKGRFTISRDNAKNTVYLQMNSLKPEDTAVYYCAADYRYLFDYWGQGTQVTVSS | high polyreactivity
QVQLVESGGGLVQAGGSLRLSCAASGITFQGNAMGWYRQAPGKERELVAAISSGGNTHYADSVKGRFTISRDNAKNTVYLQMNSLKPEDTAVYYCAASYYYTYYWGQGTQVTVSS | low polyreactivity
QVQLVESGGGLVQAGGSLRLSCAASGITFQKNAMGWDRPAPGKEMEWVAGITWRGSTYYADSVKGRFTISRDNAKNTVYLQMNSLKPEETAVYYCAADPFYWYRSVRGEYWGQGTQVTVSS | low polyreactivity
QVQLVESGGGLVQAGGSLRLSCAASGITFQKNAMGWYRKAPGKERELVAGITWRGSTYYADSVKGRFTISRDNAKNTVYLQMNSLKPEDTAVYYCAADPFYWYRSFRGEYWGKGTQVTVSS | low polyreactivity
QVQLVESGGGLVQAGGSLRLSCAASGITFQRNAMGWYRQAPGKERELVAVITSIGGRTYYADSVKGRFTISRDNAKNTVYLQMNSLKPEDTAVYYCNAASATRSADWYDYDYWGQGTQVTVSS | high polyreactivity

Sequence | polyreactivity (PSR sort gate)
QVQLVESGGGLVQAGGSLRLSCAASGITFQRYAMGWYRQAPGKERELVAAISTNGGTTYYADSVKGRFTISRDNAKNTVYLQMNSLKPEDTAVYYCNAESGYVYYFRYNYLGQGTQVTVSS | high polyreactivity
QVQLVESGGGLVQAGGSLRLSCAASGITFQRYAMGWYRQAPGKERELVAAITRGGSTNYADSVKGRFTISRDNAKNTVYLQMNSLKPEDTAVYYCAAGYKITSVYGFYYWGQGTQVTVSS | high polyreactivity
QVQLVESGGGLVQAGGSLRLSCAASGITFQRYVMGWYRQAPGKERELVAAISFSGSSTYYADSVKGRFTISRDNAKNTVYLQMNSLKPEDTAVYYCAADGSVPKYVPYPRYYGYGYWGQGTQVTVSS | high polyreactivity
QVQLVESGGGLVQAGGSLRLSCAASGITFQTYAMGWYRQAPGKERELVAAIRWGGGTTYYADSVKGRFTISRDNAKNTVYLQMNSLKPEDTAVYYCAARTYYRRGGRVDYWGQGTQVTVSS | high polyreactivity
QVQLVESGGGLVQAGGSLRLSCAASGITFQTYTMGWYRQAPGKERELVATISWNGGSTYYADSVKGRFTISRDNAKNTVYLQMNSLKPEDNAVYDCATGKWGYFRYNYWGQGTQVTVSS | high polyreactivity
QVQLVESGGGLVQAGGSLRLSCAASGITFQYNAMGWYRQAPGKERELVAAINYSGGSTYYADSVKGRYTISRDNAKNTVYLQMNSLKPEDTAVYYCAKDGTDYSHRPGKWEFDSWGQGTQVSVSS | low polyreactivity
QVQLVESGGGLVQAGGSLRLSCAASGITFRANAMGWYRQAPGKERELVAAISARGGSTYYADSVKGRFTISRDNAKNTVYLQMNSLKPEDTAVYYCNAVAYRSRSEYDYWGQGTQVTVSS | high polyreactivity
QVQLVESGGGLVQAGGSLRLSCAASGITFRDYAMGWYRQAPGKERELVAAISTRGVRTYYADSVKGRFTISRDNAKNTVYLQMNSLKPEDTAVYYCAARSVTYWWVGYEFYYWGQGTQVTVSS | high polyreactivity
QVQLVESGGGLVQAGGSLRLSCAASGITFRFYAMGWYRQAPGKERELVAVISRGGGTTYYADSVKGRFTISRDNAKNTVYLQMNSLKPADTSVYYCAADYYYVQSELGYDYWGQGTQVTVSS | high polyreactivity
QVQLVESGGGLVQAGGSLRLSCAASGITFRHNAMGWYRQAPGKERELVAAISRRTYYSDSVKGRFTISRDNAKNTVYLQMNSLKPEDTAVYYCAKDVDYVSDSPYDYWGQGTQVTVSS | low polyreactivity
QVQLVESGGGLVQAGGSLRLSCAASGITFRLYAMGWYRQAPGKERELVAAITGSGGRTYYADSVKGRFTISRDNAKNTVYLQMNSLNPEDTAVFYCNVYPPYAMDYWGQGTQVTVSS | high polyreactivity
QVQLVESGGGLVQAGGSLRLSCAASGITFRRNAMGWYRQAPGKERELFAGITRGGTTKYADSVKGRFTISRDNAKNTVYLQMNSLKPEDTAVYFCAAKDNSYGGPPQFGYWGQGTQVTVSS | high polyreactivity
QVQLVESGGGLVQAGGSLRLSCAASGITFRRYAMGWYRPAPGKERELVASISRGGSTYYADSVKGRFTISRDNAKNTVYLQMNSLTPEDTAVYYCAADVAGRYDYWGQGTQVTVSS | high polyreactivity
QVQLVESGGGLVQAGGSLRLSCAASGITFRRYAMGWYRQAPGKERELVASITSGGSTNYADSVKGRFTISRDNAKNTVYLQMNSLKPEDTAVYYCAADSRWGMDYWGQGTQVTVSS | high polyreactivity
QVQLVESGGGLVQAGGSLRLSCAASGITFRTNTMGWYRQAPGKEREFVAAISSNGGRTYYADSVKGRFTISRDNAKNTVYLQMNSLKPEDTAVYYCNARTKHRYEYDYWGQGTQVTVSS | high polyreactivity
QVQLVESGGGLVQAGGSLRLSCAASGITFRTYAMGWNRQAPGKERELVAAITRRGGSTYYADSVKGRFTISRDNAKNTVYLQMNSLKPEDTAVYYCAVRHNGIQASVGYDYWGQGTQVTVSS | high polyreactivity

From the nanobody polyreactivity screen of Harvey et al. (2022)
